Values belong to the binder of their own block, whether it stands above or below them.
What was measured:
[1] = target: T1, rHuman P-Cadherin/Fc Chimera, CF (R&D Systems Cat#861-PC) (human, UniProt P22223 108-654); test: ECL multispot (MSD) binding assay, antigen spotted on plate;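 also: purified Fab incubated 1 h at 20 °C on antigen spots, detected with TAG-labelled antibody, electrochemiluminescence compared with each well's blank, signal-to-blank ratio ≥4 counted as hit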
T1 construct: Bought recombinant protein

[2] = target: T2, rHuman IGF-1 sR, (IGF-1 sR), CF (R&D Systems Cat#391-GR) (human, UniProt P08069 31-932); test: as above
T2 construct: Bought recombinant soluble receptor; also called insulin-like growth factor-1 soluble receptor

[3] = target: T3, rHuman HGF R/c-MET/Fc Chimera, CF (R&D Systems Cat#358-MT/CF) (human, UniProt P08581 25-932); test: as above
T3 construct: Bought recombinant protein; also called HGF R/Fc; hepatocyte growth factor receptor

[4] = target: T4, rHuman Notch-1/Fc Chimera, CF (R&D Systems Cat#3647-TK) (human, UniProt P46531 19-526); test: as above
T4 construct: Bought recombinant protein

[5] = target: T5, rHuman CD44/Fc Chimera, CF (R&D Systems Cat#3660-CD) (human, UniProt P16070 21-220); test: as above
T5 construct: Bought recombinant protein

[6] = target: T6, rHuman ErbB2/Fc Chimera, CF (R&D Systems Cat#1129-ER) (human, UniProt P04626 23-652); test: as above
T6 construct: Bought recombinant protein; also called human epidermal growth factor 2 receptor

[7] = target: T7, Recombinant Human DLL4 (R&D Systems Cat#1506-D4/CF) (human, UniProt Q9NR61 27-524); test: as above
T7 construct: Bought recombinant protein; also called delta-like protein 4; rHuman DLL4

[8] = target: T8, rHuman EGF R/Fc Chimera, CF (R&D Systems Cat#344-ER) (human, UniProt P00533 25-645); test: as above
T8 construct: Bought recombinant protein; also called epidermal growth factor receptor

[9] = target: T9, Recombinant Human DLL4 (delta-like protein 4) (human, UniProt Q9NR61 27-529); test: ELISA, DLL4 coated on plate, Fab in solution, absorbance at 450 nm
T9 construct: Bought recombinant human DLL4 (R&D Systems Cat#1506-D4/CF); also called rHuman DLL4; Delta-like 4

[10] = target: T9, Recombinant Human DLL4 (delta-like …); test: 96-well plate ECL binding assay, DLL4 immobilised, Fab in solution
[11] = target: T10, Recombinant Human DLL4 (human, UniProt Q9NR61 27-524); test: ELISA on plate-coated DLL4, Fab at 0.74 nM (3-fold serial dilution)
T10 construct: Bought recombinant human DLL4 (R&D Systems 1506-D4/CF); also called delta-like protein 4; rHuman DLL4

[12] = target: T10, Recombinant Human DLL4; test: ECL (MSD) binding assay, Fab on immobilised recombinant human DLL4; Fab concentration not given in the table
[13] = target: T10, Recombinant Human DLL4; test: ELISA on plate-coated DLL4, Fab at 6.67 nM (3-fold serial dilution)
[14] = target: T10, Recombinant Human DLL4; test: ELISA on plate-coated DLL4, Fab at 20 nM (3-fold serial dilution)
[15] = target: T10, Recombinant Human DLL4; test: ELISA on plate-coated DLL4, Fab at 2.22 nM (3-fold serial dilution)

T3 sequence (P08581 25-932, change not shown): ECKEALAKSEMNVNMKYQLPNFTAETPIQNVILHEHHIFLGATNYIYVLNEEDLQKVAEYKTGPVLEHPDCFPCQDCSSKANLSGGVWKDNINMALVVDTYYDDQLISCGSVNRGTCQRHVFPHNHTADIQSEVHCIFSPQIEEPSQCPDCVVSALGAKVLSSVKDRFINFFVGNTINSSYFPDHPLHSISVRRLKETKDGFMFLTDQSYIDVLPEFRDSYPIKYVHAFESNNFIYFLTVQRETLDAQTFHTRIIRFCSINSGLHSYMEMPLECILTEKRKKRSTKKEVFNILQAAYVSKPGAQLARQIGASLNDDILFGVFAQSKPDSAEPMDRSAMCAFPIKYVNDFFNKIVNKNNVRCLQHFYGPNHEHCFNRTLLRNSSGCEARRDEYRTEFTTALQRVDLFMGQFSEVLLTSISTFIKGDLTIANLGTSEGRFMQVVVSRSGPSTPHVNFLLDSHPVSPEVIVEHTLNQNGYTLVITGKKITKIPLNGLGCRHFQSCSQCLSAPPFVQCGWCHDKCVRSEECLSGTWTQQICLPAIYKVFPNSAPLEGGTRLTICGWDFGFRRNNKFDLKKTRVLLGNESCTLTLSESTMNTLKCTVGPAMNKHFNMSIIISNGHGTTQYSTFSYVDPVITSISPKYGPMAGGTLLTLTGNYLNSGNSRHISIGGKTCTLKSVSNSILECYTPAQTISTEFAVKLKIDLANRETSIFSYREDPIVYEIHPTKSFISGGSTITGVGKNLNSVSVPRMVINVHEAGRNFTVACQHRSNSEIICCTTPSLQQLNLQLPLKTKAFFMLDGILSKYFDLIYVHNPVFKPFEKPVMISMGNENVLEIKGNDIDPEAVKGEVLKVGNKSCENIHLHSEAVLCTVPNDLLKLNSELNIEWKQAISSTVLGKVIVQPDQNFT

ECL signal [1]: 361
ECL signal [2]: 334
ECL signal [3]: 309
ECL signal [4]: 424
ECL signal [5]: 406
ECL signal [6]: 383
ECL signal [7]: 192000
ECL signal [8]: 415
B1: Fab VH1-46_IGHD6-6*01_IGHJ1*01 S102A/S103P/S104F/H111F (APFF) & L6_IGKJ1*01 S31A (Fab, V domains shown)
VH: QVQLVQSGAEVKKPGASVKVSCKASGYTFTSYYMHWVRQAPGQGLEWMGIINPSGGSTSYAQKFQGRVTMTRDTSTSTVYMELSSLRSEDTAVYYCAREEYAPFSAEYFQFWGQGTLVTVSS
VL: EIVLTQSPATLSLSPGERATLSCRASQSVSAYLAWYQQKPGQAPRLLIYDASNRATGIPARFSGSGSGTDFTLTISSLEPEDFAVYYCQQRSNWPPWTFGQGTKVEIKR
notes: Tested as Fab (CH1 with His6/Flag tags, kappa CL) made in E. coli; also called APFF / S31A

ELISA (Avgerage signal-noise) [9]: 0.165
ECL signal [10]: 18700
B2: Fab VH1-46_IGHD6-6*01_IGHJ1*01 S102A/S103P/S104F/H111F & L6_IGKJ1*01 S28N/S30D/S31H (Fab, V domains shown)
VH: QVQLVQSGAEVKKPGASVKVSCKASGYTFTSYYMHWVRQAPGQGLEWMGIINPSGGSTSYAQKFQGRVTMTRDTSTSTVYMELSSLRSEDTAVYYCAREEYAPFSAEYFQFWGQGTLVTVSS
VL: EIVLTQSPATLSLSPGERATLSCRASQNVDHYLAWYQQKPGQAPRLLIYDASNRATGIPARFSGSGSGTDFTLTISSLEPEDFAVYYCQQRSNWPPWTFGQGTKVEIKR
notes: Parental template of this NNK series; Fab with CH1 (plasmid A, His6 and Flag tags) and kappa CL (plasmid C); also called H:APFF & L:NDH; NDH

ELISA signal [11]: 0.368
ECL signal [12]: 9010
ELISA signal [13]: 0.88
ELISA signal [14]: 1.01
ELISA signal [15]: 0.594
B3: Fab VH1-46_IGHD6-6*01_IGHJ1*01 S102A/S103P/S104F/H111F N52L/S54T/G56H & L6_IGKJ1*01 S28N/S30D/S31H S52L/A55G (Fab, V domains shown)
VH: QVQLVQSGAEVKKPGASVKVSCKASGYTFTSYYMHWVRQAPGQGLEWMGIILPTGHSTSYAQKFQGRVTMTRDTSTSTVYMELSSLRSEDTAVYYCAREEYAPFSAEYFQFWGQGTLVTVSS
VL: EIVLTQSPATLSLSPGERATLSCRASQNVDHYLAWYQQKPGQAPRLLIYDALNRGTGIPARFSGSGSGTDFTLTISSLEPEDFAVYYCQQRSNWPPWTFGQGTKVEIKR
notes: Fab expressed in E. coli: VH joined to CH1 from Plasmid A (His6 and Flag tags), VL joined to kappa CL from Plasmid C; also called H:APFF LTH & L:NDH LG

ELISA (Avgerage signal-noise) [9]: 0.162
ECL signal [10]: 17800
B4: Fab VH1-46_IGHD6-6*01_IGHJ1*01 S102A/S103P/S104F/H111F & L6_IGKJ1*01 S28N/S30D/S31H N53M (Fab, V domains shown)
VH: QVQLVQSGAEVKKPGASVKVSCKASGYTFTSYYMHWVRQAPGQGLEWMGIINPSGGSTSYAQKFQGRVTMTRDTSTSTVYMELSSLRSEDTAVYYCAREEYAPFSAEYFQFWGQGTLVTVSS
VL: EIVLTQSPATLSLSPGERATLSCRASQNVDHYLAWYQQKPGQAPRLLIYDASMRATGIPARFSGSGSGTDFTLTISSLEPEDFAVYYCQQRSNWPPWTFGQGTKVEIKR
notes: Fab with CH1 (plasmid A, His6 and Flag tags) and kappa CL (plasmid C); also called H:APFF & L:NDH N53M

ELISA (Avgerage signal-noise) [9]: 0.177
ECL signal [10]: 16300
B5: Fab VH1-46_IGHD6-6*01_IGHJ1*01 S102A/S103P/S104F/H111F & L6_IGKJ1*01 S28N/S30D/S31H S52W (Fab, V domains shown)
VH: QVQLVQSGAEVKKPGASVKVSCKASGYTFTSYYMHWVRQAPGQGLEWMGIINPSGGSTSYAQKFQGRVTMTRDTSTSTVYMELSSLRSEDTAVYYCAREEYAPFSAEYFQFWGQGTLVTVSS
VL: EIVLTQSPATLSLSPGERATLSCRASQNVDHYLAWYQQKPGQAPRLLIYDAWNRATGIPARFSGSGSGTDFTLTISSLEPEDFAVYYCQQRSNWPPWTFGQGTKVEIKR
notes: Fab with CH1 (plasmid A, His6 and Flag tags) and kappa CL (plasmid C); also called H:APFF & L:NDH S52W

ELISA (Avgerage signal-noise) [9]: 0.185
ECL signal [10]: 19500
B6: Fab VH1-46_IGHD6-6*01_IGHJ1*01 S102A/S103P/S104F/H111F & L6_IGKJ1*01 S28N/S30D/S31H S52M (Fab, V domains shown)
VH: QVQLVQSGAEVKKPGASVKVSCKASGYTFTSYYMHWVRQAPGQGLEWMGIINPSGGSTSYAQKFQGRVTMTRDTSTSTVYMELSSLRSEDTAVYYCAREEYAPFSAEYFQFWGQGTLVTVSS
VL: EIVLTQSPATLSLSPGERATLSCRASQNVDHYLAWYQQKPGQAPRLLIYDAMNRATGIPARFSGSGSGTDFTLTISSLEPEDFAVYYCQQRSNWPPWTFGQGTKVEIKR
notes: Fab with CH1 (plasmid A, His6 and Flag tags) and kappa CL (plasmid C); also called H:APFF & L:NDH S52M

ELISA signal [11]: 0.046
ECL signal [12]: 3720
ELISA signal [13]: 0.282
ELISA signal [14]: 0.458
ELISA signal [15]: 0.04
B7: Fab VH1-46_IGHD6-6*01_IGHJ1*01 S102A/S103P/S104F/H111F I51A/N52L/S54T/G56H & L6_IGKJ1*01 S28N/S30D/S31H S52L/A55S (Fab, V domains shown)
VH: QVQLVQSGAEVKKPGASVKVSCKASGYTFTSYYMHWVRQAPGQGLEWMGIALPTGHSTSYAQKFQGRVTMTRDTSTSTVYMELSSLRSEDTAVYYCAREEYAPFSAEYFQFWGQGTLVTVSS
VL: EIVLTQSPATLSLSPGERATLSCRASQNVDHYLAWYQQKPGQAPRLLIYDALNRSTGIPARFSGSGSGTDFTLTISSLEPEDFAVYYCQQRSNWPPWTFGQGTKVEIKR
notes: Fab expressed in E. coli: VH joined to CH1 from Plasmid A (His6 and Flag tags), VL joined to kappa CL from Plasmid C; also called H:APFF ALTH & L:NDH LS

From patent US20120316071A1 (published 2012)
